# From patent publication US20190002553A1
# Key:
# [1] = molecular target: human IL-11 (Interleukin 11) (human) (UniProt P20809); assay: cell-based or functional assay
# murine IL-11 (mouse) = murine IL-11 (mouse) (UniProt P47873); assay: cell-based or functional assay
# Chain of UniProt P47873 (P47873 22-199 limits assumed): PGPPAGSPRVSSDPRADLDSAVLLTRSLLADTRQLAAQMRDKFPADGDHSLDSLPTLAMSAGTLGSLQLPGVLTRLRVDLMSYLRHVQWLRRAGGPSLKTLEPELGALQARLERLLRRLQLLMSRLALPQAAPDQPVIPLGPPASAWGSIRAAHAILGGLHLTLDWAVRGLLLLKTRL
# Chain of UniProt P20809 (P20809 22-199 limits assumed): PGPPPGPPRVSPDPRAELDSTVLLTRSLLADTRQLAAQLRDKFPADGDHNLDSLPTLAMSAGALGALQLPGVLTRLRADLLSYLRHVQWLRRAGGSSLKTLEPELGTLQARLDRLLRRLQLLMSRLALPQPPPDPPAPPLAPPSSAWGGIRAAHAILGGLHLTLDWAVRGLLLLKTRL
substance,measurement,setting,value
neutralising anti-human IL-11 monoclonal antibody (Monoclonal Mouse IgG2A; Clone #22626; Catalog No. MAB218; R&D Systems),"percentage of activated (αSMA-positive) fibroblasts, TGFβ1-stimulated human atrial fibroblasts",[1],28.3%
same,percentage of activated fibroblasts normalised to non-stimulated cultures (=1) (fold of non-stimulated cultures),[1],0.99
same,"percentage of activated fibroblasts, TGFβ1-stimulated human atrial fibroblasts, relative to unstimulated cultures",[1],0.89 fold
same,percentage of activated fibroblasts normalised to non-stimulated cultures (=1) (fold of non-stimulated cultures),murine IL-11 (mouse),1.24
same,"percentage of activated fibroblasts, TGFβ1-stimulated mouse atrial fibroblasts, relative to unstimulated cultures",murine IL-11 (mouse),1.44 fold
same,"percentage of activated fibroblasts, TGFβ1-stimulated mouse dermal fibroblasts",murine IL-11 (mouse),39.4%
